Legend:
mouse serum albumin [1] = biological target: T1, mouse serum albumin (mouse, UniProt P07724 25-608); test: ratio of the Octet KD for mouse serum albumin to that for human serum albumin
T1 construct: also called MSA

mouse serum albumin [2] = biological target: T1, mouse serum albumin; test: Octet HTX (ForteBio), HCAb on AHC sensor, 1:1 fit
protein A = protein A (UniProt P38507 37-327); test: Octet HTX (ForteBio), HCAb on AHC sensor, 1:1 fit
cynomolgus serum albumin = cynomolgus serum albumin (cynomolgus, UniProt A2V9Z4 25-608); test: Octet HTX (ForteBio), HCAb on AHC sensor, 1:1 fit
human serum albumin = biological target: T2, human serum albumin (human, UniProt P02768 25-609); test: Octet HTX (ForteBio), HCAb on AHC sensor, 1:1 fit
T2 construct: also called HSA

T1 sequence (P07724 25-608 limits assumed): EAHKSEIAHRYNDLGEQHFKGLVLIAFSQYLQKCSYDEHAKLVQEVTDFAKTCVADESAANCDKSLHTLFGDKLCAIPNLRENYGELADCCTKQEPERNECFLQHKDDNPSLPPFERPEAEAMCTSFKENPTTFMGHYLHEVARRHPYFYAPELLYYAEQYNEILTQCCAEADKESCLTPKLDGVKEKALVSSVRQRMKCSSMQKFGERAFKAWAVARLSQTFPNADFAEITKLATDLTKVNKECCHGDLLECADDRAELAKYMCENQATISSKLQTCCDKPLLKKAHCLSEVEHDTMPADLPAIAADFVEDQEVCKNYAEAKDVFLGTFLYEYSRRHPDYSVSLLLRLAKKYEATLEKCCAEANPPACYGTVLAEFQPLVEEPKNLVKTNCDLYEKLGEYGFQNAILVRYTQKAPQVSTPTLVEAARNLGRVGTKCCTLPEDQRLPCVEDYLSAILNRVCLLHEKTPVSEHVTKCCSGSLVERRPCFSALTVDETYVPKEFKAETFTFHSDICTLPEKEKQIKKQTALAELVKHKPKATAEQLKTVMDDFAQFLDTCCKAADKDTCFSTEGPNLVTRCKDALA
Sequence of cynomolgus serum albumin (A2V9Z4 25-608 limits assumed): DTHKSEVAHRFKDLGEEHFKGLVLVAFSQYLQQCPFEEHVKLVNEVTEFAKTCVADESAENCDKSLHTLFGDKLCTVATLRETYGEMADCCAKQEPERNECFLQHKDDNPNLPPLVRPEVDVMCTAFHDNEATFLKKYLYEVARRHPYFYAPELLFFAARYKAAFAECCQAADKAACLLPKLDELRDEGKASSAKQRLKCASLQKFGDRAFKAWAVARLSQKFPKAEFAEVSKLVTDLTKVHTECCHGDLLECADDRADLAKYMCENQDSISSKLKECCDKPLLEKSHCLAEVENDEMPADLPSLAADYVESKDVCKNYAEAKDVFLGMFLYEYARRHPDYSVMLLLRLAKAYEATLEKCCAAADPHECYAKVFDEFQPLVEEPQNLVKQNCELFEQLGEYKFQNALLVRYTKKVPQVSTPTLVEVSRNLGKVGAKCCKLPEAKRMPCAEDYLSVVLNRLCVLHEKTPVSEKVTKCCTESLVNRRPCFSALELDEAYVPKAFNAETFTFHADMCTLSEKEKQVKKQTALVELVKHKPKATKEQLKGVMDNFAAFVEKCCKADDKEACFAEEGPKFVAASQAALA

Binder | Ratio of MSA-KD to HSA-KD (mouse serum albumin [1]) | Kd (mouse serum albumin [2]) [nM] | koff (mouse serum albumin [2]) [s⁻¹] | Kd (protein A) [nM] | koff (protein A) [s⁻¹] | Kd (cynomolgus serum albumin) [nM] | koff (cynomolgus serum albumin) [s⁻¹] | Kd (human serum albumin) [nM] | koff (human serum albumin) [s⁻¹]
CNG-HSA-117 (VHH) VHH: KVQLVESGGGLVQPGNSLRLSCAASGFTFSSFGMSWVRQAPGKGLEWVSSISGSGSDTLYADSVKGRFTISRDNSKNTLYLQMNSLRAEDTAVYYCTIGGSLTRSSQGTLVTVSS | 8.07 | 44.8 | 0.00877 | 1.78 | 0.0002 | 4.05 | 0.000608 | 5.56 | 0.000793
CNG-HSA-102 (VHH) VHH: KVQLLESGGGLVQPGGSLRLSCAASGFTFSSFGMSWVRQAPGKGLEWVSSISGSGSDTLYADSVRGRFTISRDNSKNTLYLQMNSLRPEDTAVYYCTIGGSLSPSSQGTLVTVSS | 8.46 | 41.4 | 0.00738 | 1.7 | 0.0002 | 3.65 | 0.000568 | 4.89 | 0.000748
CNG-HSA-111 (VHH) VHH: KVQLVESGGGLVQPGGSLRLSCAASGFTFSSFGMSWVRQAPGKGLEWVSSISGSGSDTLYADSVEGRFTISRDNSKNTLYLQMNSLRAEDTAVYYCTIGGSLKQSSQGTLVTVSS | 1.23 | 10.2 | 0.00231 | 2.84 | 0.0002 | 6.13 | 0.000884 | 8.35 | 0.00117
CNG-HSA-120 (VHH) VHH: KVQLVESGGGLVQPGGSLRLSCAASGFTFSSFGMSWVRQAPGKGPEWVSSISGSGSDTLYADSVKGRFTISRDNSKNTLYLQMNSLRPEDTAVYYCTIGGSLKQSSQGTLVTVSS | 1.37 | 4.32 | 0.00107 | – | – | 2.6 | 0.000422 | 3.15 | 0.000507
CNG-HSA-101 (VHH) VHH: KVQLVESGGGLVQPGGSLRLSCAASGFTFSSFGMTWVRQAPGKGLEWVSSISGSGSDTLYADSVRGRFTISRDNSKNTLYLQMNSLRAEDTAVYYCTIGGSLSPSSQGTLVTVSS | 3.17 | 16.1 | 0.00341 | 1.84 | 0.0002 | 3.58 | 0.000532 | 5.07 | 0.000716
CNG-HSA-113 (VHH) VHH: GVQLLESGGGLVQPGGSLRLSCAASGFTFSSFGMSWVRQAPGKGLEWVSSISGTGSDTLYADSVKGRFTISRDNSKNTLYLQMNSLRPEDTAVYYCTIGGSLRYSSQGTLVTVSS | 3.38 | 52 | 0.0101 | 1.7 | 0.0002 | 12.1 | 0.0017 | 15.4 | 0.00214
CNG-HSA-108 (VHH) VHH: KVQLVESGGGLVQPGGSLRLSCAASGFTFGSFGMSWVRQAPGKGLEWVSSISGSGADTLYADSVKGRFTISRDNSKNTLYLQMNSLRAEDTAVYYCTIGGSLRASSQGTLVTVSS | 1.3 | 8.06 | 0.00185 | 2.94 | 0.000294 | 5.27 | 0.000794 | 6.19 | 0.000958
CNG-HSA-105 (VHH) VHH: EVQLLESGGGLVQPGGSLRLSCAASGFVFSSFGMSWVRQAPGKGLEWVSSISGSGSDTLYADSVKGRFTISRDNSKNTLYLQMNSLRPEDTAVYYCTIGGSLSRSSQGTLVTVSS | 10.1 | 154 | 0.0206 | 2.76 | 0.000297 | 12.7 | 0.00163 | 15.2 | 0.002
CNG-HSA-110 (VHH) VHH: KVQLVESGGGLVQPGNSLRLSCAASGFTFSSFGMSWVRQAPGKGLEWVSSISGSGGDTLYADSAKGRFTISRDNSKNTLYLQMNSLRPEDTAVYYCTIGGSLSRSSQGTLVTVSS | 6.82 | 38.9 | 0.00838 | 3.67 | 0.000378 | 5.2 | 0.000759 | 5.7 | 0.000893
CNG-HSA-119 (VHH) VHH: KVQLVESGGGLVQPGNSLRLSCAASGFTFSSFGMSWVRQAPGKGLEWVSSISGSGSDALYADSAKGRFTISRDNAKTTLYLQMNSLRAEDTAVYYCTIGGSLSPSSQGTLVTVSS | 5.59 | 41.1 | 0.00854 | – | – | 5.73 | 0.000864 | 7.36 | 0.00109
CNG-HSA-112 (VHH) VHH: KVQLLESGGGLVQPGGSLRLSCAASGFTFPSFGMSWVRQAPGKGLEWVSSISGSGSDTLYADSVKGRFTISRDNAKTTLYLQMNSLRPEDTAVYYCTIGGSVSKSSRGTLVTVSS | 7.9 | 66.7 | 0.013 | 3.44 | 0.000375 | 7.43 | 0.00115 | 8.45 | 0.00136
CNG-HSA-116 (VHH) VHH: KVQLVESGGGLVQPGGSLRLSCAASGFTFSSFGMSWVRQAPGKGPEWVSSISGSGSDTLYADSVKGRFTISRDNSKNTLYLQMNSLRAEDTAVYYCTIGGSLRASSQGTLVTVSS | 0.98 | 4.56 | 0.00108 | 1.75 | 0.0002 | 3.85 | 0.000597 | 4.65 | 0.000699
CNG-HSA-103 (VHH) VHH: KVQLVESGGGLVQPGGSLRLSCAASGFTFSSFGMTWVRQAPGKGLEWVSSISGSGSDTLYADSVRGRFTISRDNSKNTLYLQMNSLRPEDTAVYYCTIGGSLSPSSQGTLVTVSS | 3.09 | 15.1 | 0.00324 | 2.02 | 0.000221 | 3.62 | 0.000541 | 4.89 | 0.000742
CNG-HSA-118 (VHH) VHH: KVQLVESGGGLVQPGNSLRLSCAASGFTFSSFGMSWVRQAPGKGLEWVSSISGGGSDTLYADSVRGRFTISRDNSKNTLYLQMNSLRAEDTAVYYCTIGGSLRASSQGTLVTVSS | 1.28 | 12 | 0.00274 | – | – | 6.65 | 0.00102 | 9.36 | 0.0013
CNG-HSA-104 (VHH) VHH: KVQLLESGGGLVQPGGSLRLSCAASGFTFHSFGMSWVRQAPGKGLEWVSSISGSGSDTLYADSVKGRFTISRDNSKNTLYLQMNSLRPEDTAVYYCTIGGSLSRSSQGTLVTVSS | 6.57 | 50.6 | 0.0105 | 1.7 | 0.0002 | 6.1 | 0.000874 | 7.71 | 0.00112
CNG-HSA-107 (VHH) VHH: KVQLLESGGGLVQPGGSLRLSCAASGFTFSSFGMSWVRQAPGKGLEWVSSISGSGSDTLYADSVRGRFTISRDNSKNTLYLQMNSLRAEDTAVYYCSIGGSLIRSSQGTLVTVSS | 2.72 | 45.6 | 0.00851 | 3.09 | 0.000333 | 13.3 | 0.00182 | 16.8 | 0.00238
CNG-HSA-109 (VHH) VHH: KVQLVESGGGLVQPGNSLRLSCAASGFTFGSFGMSWVRQAPGKGPEWVSSISGSGSDTLYADSVKGRFTISRDNSKNTLYLQMNSLRPEDTAVYYCTIGGSLSRSSQGTLVTVSS | 3.4 | 11.9 | 0.00284 | 1.78 | 0.0002 | 3.1 | 0.000503 | 3.5 | 0.000566

Source: patent US20230037815A1 (CULLINAN THERAPEUTICS, published 2023)
